Measurements from the NTF2 design screens of Basanta et al. (2020).

Assay: protease stability score; higher = more stable; yeast display proteolysis, trypsin and chymotrypsin;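 further: relative to predicted unfolded state with 0 unfolded-like and 1 meaning tenfold more protease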

Sequence | protease stability score
DEDEEHAYRIFKILLESVYTGNEEMLHTLLDPHARLVFDGVHHHGRETVSYMMHHWRVEEFHTHSFHVDIINGVADLKWDGHITGHFNGKRQESRVEIRFFLRKVDGKWLNESVEIIFR | 1.49
DEDTKTAWRMLHLSHKAIETGDEHLIKHLFDPHVRIHIDGVDLHGREELLTHLRHWRMVVEDEVSKDSKSYGDKITLDGHVDLTFEYNGRRVRVIFDTRIIIVKFNGRWLIKTIHFE | 0.512
DEEHHLAKELVRLLQEALSTGDEDEVKRLIDPDYRLIIGEFIFHGREDLERWLHHARVSVKDSHLRHVKVQGDKVEINGERNLIVIIDGKKIERKHRLHLIIIKVDGRWFMESEKYD | 1.01
DEDERLAKHFIELFIESFLTGDFDEVRKLIDPHTRVEIIIGDKVIEDHGWEAYSRTFNHLGIDHIHREDFRVTLVNGRAVLRLQFRIEIGDKEFDMHIHVFSNKINGRWHVERILIYVR | 2.34
EEDKDWAEWAMRLFVELLFTGDEERLNHFLDPHVRVEFNGRDLHGREMLEKLLELMGIDHIQFKHIELRVIDGQVHLHIDGFADIDGRTHRIRIHMHFEKINGKWRFHSVKFEHK | 1.39
TEIKHHVKEMADLFLENLLTGNEDILKKLMDPNALLVVGNKHIHGWEEMIKQWKDVRRHMRIEHVETEDIELQGDKAHIHVNIFGQINGKRKESHVRIHFEVFDGVLRRVEIDER | 1.18
SEDDQLVRELMRRIMKNIMTGDEEKHLNLVDPHARTIFDGREYHGRELYTMVFRILYNRIDHWTDLKVEHVSIYDGVIEIHVRADVDINGKRTEITMIIFVNKVNGRWIIEYVVYS | 1.37
DENHRHASELIEIFRHALATGDWETLYRLMDPHTRVLINGKDLHGMEEHLTFLLEEHERLGIENIDVRVRIDHREVQGDKIIIHITIHLNFNGREIYFESRIIVSKFNGRWSIESLEIR | 1.42
SELDELANFANELFWELHKTGDEEIFNHYADPHMRYEIDGRDIHGMEVFTKHLRRIKNLTLHSIHVHDEKSQGEKFIFDGNVVGRVNGKEFDTRVRLELTVINGRVHSIILRRH | 1.41
DHREEESKRYLDDYSRAVTTGDEDRLTELLDPNTKLNYNGQEYHGMEKYKEVLHKILTEIRFESHHVETFRVVGNKLQLDTHIKGHINGKHIRLETHVDIVKINGRWLIDSVRFQ | 0.29
DELEEDSKKFFEILIKAYWTGDFTTLSRMMDPHVRNDINGRDIHGMEELSRVETEISRKYGADHFDFHIKDFKVQGEKLTVHGRIIIRVNGKTFEHDEIFYLIKIDGKWTWESVEVL | 0.989
SEEEQRQHEFMILWLEYFRTGNEEELLELIDPNVLLVMDINGRNELNHGRELWHEFMNRFWEKIKNATFIVHDKRVINGRIHMDGRLDINGREYTVHLHIEVINGVTKRFEIRIR | 1.68
DDDEHDTEKLLTFYSHAERTGDEELLRHLFDPDVKLYIGDKLFIGWRLFKERFRRWVEELGINHIEVHLHRYRIQGDKIDMDTRLELRYDGRTEHVESHVIVRKVDGRWNFERMHFN | 0.745
DEVTEIAERFLEEFIQHHETGDEDRIRHLMDPHVRLTQGDKTLHGREEASRVVIELAKRIDHLHIKLTTIRVQGEKVYIHTELRMEVGDKELRFHVTFIFLKVNGRWRMHSVHIE | 1.06
DEESKESHDIMRILLHIFRTGDEHKLKEMADPNTLFHIGDKEFHGREEFVHFLREVFEKIKNIKHRITDIKDVGDKIHVEVEEKVNGRHRHVELIWLVVDGKIQWYEIRIR | 1.23
DEWEELIEETAENIIRFIETGDEDFFRTFADPHMRFIYDQGDFRLIDHGREKVSEWLIRFLQEMRIIFIIEDVKVQGDKAHSQGRIHVNINGQRHEFNSRVIVVWVNGRLKYFRMSVR | 1.43
DEDEEITERIIRLLLNAWMTGDEEMLKRLFDPHVRIDQGDKNLIGWEELERETRRIDHIRLDLRIKHIKVYDGRVEINSFLHVDLHINGVTLHHELRMHIIIEKVDGRWIIHSQKLE | 1.25
SEDKEMADWAIEIWVKSIRTGDEHTQLHLVDPHYREDVGDKEIHGRDELRRHMHEARVDEFRHKIDRMRTQGNKVHLDGIFQMKIRIDGKVDHIEFHSRLVVEKVDGRWLVKSLHIN | 1.21
SDWEDLVRMAFHHFIHSMRTGDEDIIHQLLDPEVKINVGDKVIHGREQAFDYIHTLVNRADHIRFRLDHLDVQGDFIEIRTTVDLTYGDKHHRMEVTFFSRKVDGVWLIERVQIK | 1.27
DEDDELKKTAVHDFTRDIATGDEESLHKLVDPHVRTTFDGQDLIGREHMWEHIHRLLRRYKNIRSEHIHIREIHVVDGVVESHTHIHMRIGEFKFIFNVHVFILKVDGVWFVHEAHYV | 0.886
DDWHEEMREMLELLLRALFTGDEKHLVENLDPNVKIIFDGKDLHGRRDASKLIHEYGVDHITRHKIHDSKFFNGRLDVDGIFDQTVNGRREEVHRRIILLKFDGRWWIHRIEIR | 1.63
SEYEEEVRRAMELEIRSIKTGNEELIKHLMDPNVRLVIGDKNFHGREAIEVFVERFDYIHEVEITSIDLQGDFVNMRGVLDGRINGQRLRTKVHYISRKVDGRWFSESIHIR | 0.66
DDEERANRELLELLIHSYRTGDWKLWHELVDPHVRTSLHQGEFEMKSIGRHYVRDIMTYMGVDHVELRHLEIQGDKLIMHLELDVNGRRLHVILFLSKINGVWILREEEIRFI | 1.3
DDKEETARRILDWITKLLLTGDFDTLHRMADPHMRSNYGEFEMHGMEEHSEWWHRLTLRVDHLREEIKRVTVVNGKIVADLRLRFIIGDKVEVRDITVELIVVDGRLKELRFDVK | 1.14
SEDEEIQKKFWEEFMKALHTGDWHTLEKLLDPHVRYLVGEKHVHGRKKLEMEIRHLGVTNIEMHLHIESEERQGNKIILNGEFRRRINGVEIKTRAILILIKIDGRWVIDTEFIE | 2.05

Sequence | protease stability score
HESQEHDDRILDLFETLLRTGDWERLFQLADPHVRLRLHYGDKEIHQVGREEVVRMFLWWRERFGVDHFEVHEVRVVDGVNHIDGRLTVNGRNRRTEIVFIVVNGRIKEFEVRHR | 2.24
SEDEKQFNEFLKLFNHSLQTGDEDTLTDLMDPTVRSDINGREFHGREEMSRALNILIKLAGVDHTSIDLKRLEVVGDKAHSDVSLLLIQGDKIRTHEMKLDMYKIDGKWILTHLRFK | 1.66
HQEDRLVFALAKDWIDNLETGDEDKMLQRADPRRQLIIDGRTFHGWENTYENMKQIRIEHLEIRDMTVVDGRIHINTHSILIINGRRFETETSIRLVVVNGVIQDVDININ | 0.081
SDEERDSRKAEEKWIRTLETGDERIITELADPNVRLEIGDKTFHGREDFYKFMTYLTRHLRVERFEIKRFDFQGEWIHMKTHINMRVGEFSHHSDTEIVAYKVNGRWVIHNVRVE | 0.831
DEDDENVEQFIELFNEVMNTGDWRSLKRMIDPNARSRIGEKHLIGREMLEDFRHQADHVKIRDMKIERSHVINGRVLVDGIVHGEENFNGRRFLVNREVHLVVVKVNGRWFLRSIEFG | 0.809
DEHRRELKEAIEMMLTALYTGDEKILLELIDPNTRLDVNGRELHGRDDWVEETRRIKNLKFHVHHIDVQGEKIHVDGLVIFNGRERRVHYNAEKYDGRWILTHINVR | 1.22
DDKDEKSKKWAEMFIHLIETGDEERIRELLDPDVRVEIGDKEIHGRERWLEWERRMRDKYKNLRFRIEHHHIQGDKVHIRTEREIGDKSLDIRIEIIIYNGRAKEFHIDIR | 2.87
DESEETAVRMFKHWIRMIETGDEDSLEELADPNVRLEVNGQEVHGRELFLRFFLEMRIKRVRLRHIETQGEKLIIHGELDGEINGRRQETRVIIIVRKVDGKWIIKSIRIE | 2.76
DERDERLTEFLELYFKLWFTGDEDTFAHLADPNTRSVFNGKWIHGMESYSEWVEKHMRHLRFKDMKIRDSRVVDGQIHMNTEVEGEVNGQRYRVETRIILDVIDGRIKEVRLHIH | 1.24
NEEQKEAEDFMRMVSRIHETGDEDSLRRYFDPNVRIKDENHHLHGWKELIHWTHRVDHIEVRVKNVDIQGDKIHLDGEEIVRIDGVEVRRRVLFILTKVNGRWHIQEIRIE | 0.72
DDKHELSHKFVRLIMHLIDTGDEDDIHRLLDPHAKLHVGDKRFVGREDIAHFWKKHLDDLGADYRHTRLKHIDLIGEKVIVHTEIDLTVGEYRVTIDSTFVVEKINGRWLSREFRWN | 0.88
TEEDELAHRFWELIRTSFLTGDEESLERLADPNVRLEIGDKELHGREQFSHIMREFVERFKNLRVRVEEERVVGDKAESIEDFHFNGQNLKVLTIVKKINGKWVIKSIVIKIE | 1.7
HESDKLVDEIFKTFIHAIVTGDEETLKTMLDPNTKFILIYGDKYHEHHGWRDLIRWLREIRIREIIHRHVENQGDKVHHEGELRGEFNGKEIRTEIHIHMVVVNGKLRRMEWEIK | 2.07
DEIDHRAREVAERILKSMLTGDFDTLRELMDPHVRVILSVNGRENHTVGREWFAHVVKEWIDRVDVHQIDVERVELQGEKVHMDTNLRIHYGDKSITRKTEIIIDVVDGRVHYVRFIIR | 2.52
TEDEHHEELIAKELFHNFLTGNEDLLSEMADPNTKSDIDGKHDVGREEMSRSLIEFLDKMGIKHLVLTDHRAVNGKVILHERVHVNGRDIEVNLTWDVWNGRIKRVEIRITHR | 0.982
GDLEHMLESMARLWTHEVLTGDEDTLRRLADPNVRFESHVNGQRVEFHGMEEVAEWMRKHLEEIRSRIELRTIEPQGNKAHVDGTTHLHYNGRTVIKKTHVHLSIVDGKIQRVELELR | -0.051
REKDDLLHEFTERYMTAIETGDEETLEKLMDPDVKLHVGEYHDHGREDVSEWLRTHLEQWRIERIEIQHVDLQGDKLRVDLIVHARVGDKRIILHTILISRKINGRWHIKFFSMR | 1.3
DEEEEKSKRMLEIIIHAVMTGDFQHLLDNMDPHVKLDIDGVDLHGRESAEEFVKKVKNLTLHDWKLDHWHIQGDKVTMHVTIDGLYNGKKERTRVIIIALKINGQWHIKSMKID | 1.9
DEEKHLALFLYRILVKWWLTGNEEDESHLADPHTRFEVNGVELIGRELSSHMIERELREIRVIIEIEEFRTVGDKVDIRLTLKYEYGDKEDSRESHLELIIIDGKTTHVEVRER | 1.6
SEDENLIEEFLRRLMKWHNTGNFDEILNMVDPNTRIIVGDKFHHGRDALRYMWEFLGVDHVRIHVKRQEIIGDKVHNDTELEVNVNGKNLRIKEKLVVIKVNGVWILERIEIQ | 1.48
DELTNEHERYLHFLWEMIKTGDEENLENLVDPHARLEFENREFHGREDVRKWLVEIRFHRVHLRRMEVQGNKVILDTELDGEFNGQRVRHTTKTHALKVNGQWLLHELIIK | 1.25
DDEEKETEDFLRLLIEFLLTGDEERLKDLLDPNTRLEYGEFDFVGREHVLEWRHHYRKILGAKHRELRIEHLHVIDGRVNAISRVHLRFDGREYSHETIIIIEKVNGKWLLHSEEIR | 1.33
DEDEHEMRELIDKWLHNLKTGDEKRTEELMDPHAKIRTVINGVEYRFHGREMLHYLVQILGVDHMEIKHVEIRVQGNKVENHVDLTLIVGDKHVRTRMILVAEKIDGRWEVKSLFFNIE | 1.96
EEEKESHQWILEVYMHTVRTGDPRMIKELLDPNVKLEAENREVHGREHVLKILWTKLHEMRIEHVTVEDVEVQGNKVRVHNEVHYTFDGQRDILKTEVIATKFDGRWHFKSLREK | 0.222
NEINRHLHEAFKKLINVMMTGDEEESTELLDPNARINFNGKDFWGWNELRKSMHEARIHHIQITSVRYIGDKIIIHGTVDGEFDGQRKEVEMEIFSRKFNGQWFFESIIIR | 1.28
